The target in one data set is T1, DP (DUF283-PAZ) (Homo sapiens, UniProt Q9UPY3 605-1068).
T1 sequence: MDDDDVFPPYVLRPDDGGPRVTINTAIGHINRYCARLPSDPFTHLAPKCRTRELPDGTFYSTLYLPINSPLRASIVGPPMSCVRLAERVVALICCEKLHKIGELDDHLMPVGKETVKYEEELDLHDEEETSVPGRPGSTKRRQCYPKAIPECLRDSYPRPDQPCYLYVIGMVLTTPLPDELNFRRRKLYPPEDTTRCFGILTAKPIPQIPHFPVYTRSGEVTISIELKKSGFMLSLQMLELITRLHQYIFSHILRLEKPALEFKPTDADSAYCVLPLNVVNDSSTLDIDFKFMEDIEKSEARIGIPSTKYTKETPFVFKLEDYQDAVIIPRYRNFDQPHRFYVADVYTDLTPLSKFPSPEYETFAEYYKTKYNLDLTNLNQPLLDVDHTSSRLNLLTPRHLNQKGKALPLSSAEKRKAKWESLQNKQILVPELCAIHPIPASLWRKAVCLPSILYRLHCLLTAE
Kind of data set: filter binding.

The target in data set [1] is FL-hDicer (full-length human Dicer) (Homo sapiens, UniProt Q9UPY3 1-1922). Description: filter binding.
The target in a further data set is T2, MBP-ATPase/hel (Homo sapiens, UniProt Q9UPY3 1-604).
T2 sequence: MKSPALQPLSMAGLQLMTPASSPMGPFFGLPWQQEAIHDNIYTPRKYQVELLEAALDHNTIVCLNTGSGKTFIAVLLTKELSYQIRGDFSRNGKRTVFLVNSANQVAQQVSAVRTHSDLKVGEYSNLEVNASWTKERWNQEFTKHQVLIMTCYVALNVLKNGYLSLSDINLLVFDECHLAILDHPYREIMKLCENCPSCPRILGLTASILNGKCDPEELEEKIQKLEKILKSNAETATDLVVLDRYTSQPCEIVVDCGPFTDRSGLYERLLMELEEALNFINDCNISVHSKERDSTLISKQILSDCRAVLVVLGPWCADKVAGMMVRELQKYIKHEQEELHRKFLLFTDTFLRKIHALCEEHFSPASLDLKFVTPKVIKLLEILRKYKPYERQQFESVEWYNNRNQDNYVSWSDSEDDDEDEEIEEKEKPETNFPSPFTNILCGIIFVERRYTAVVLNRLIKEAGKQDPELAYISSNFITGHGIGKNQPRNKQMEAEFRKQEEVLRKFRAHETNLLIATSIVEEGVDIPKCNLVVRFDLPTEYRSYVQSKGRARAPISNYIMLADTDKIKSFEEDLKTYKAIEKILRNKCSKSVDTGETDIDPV
Kind of data set: filter binding.

Data set [2] deals with T3, MBP-ATPase/hel domain of human Dicer with a C-terminal hemagglutinin (HA) epitope tag (human, UniProt Q9UPY3 1-604).
T3 sequence (looked up): T2 sequence
Kind of data set: co-IP.

Data set [3] has as its target T4, ATPase/helicase domain of human Dicer (1-604) fused with maltose-binding protein (human, UniProt Q9UPY3 1-604).
T4 sequence (looked up): T2 sequence
Kind of data set: SEC. (In gel filtration, larger molecules generally elute earlier.)

Data set [4] deals with T5, hDcr-C (RNase IIIa, IIIb, dsRBD) (Homo sapiens, UniProt Q9UPY3 1235-1922).
T5 sequence: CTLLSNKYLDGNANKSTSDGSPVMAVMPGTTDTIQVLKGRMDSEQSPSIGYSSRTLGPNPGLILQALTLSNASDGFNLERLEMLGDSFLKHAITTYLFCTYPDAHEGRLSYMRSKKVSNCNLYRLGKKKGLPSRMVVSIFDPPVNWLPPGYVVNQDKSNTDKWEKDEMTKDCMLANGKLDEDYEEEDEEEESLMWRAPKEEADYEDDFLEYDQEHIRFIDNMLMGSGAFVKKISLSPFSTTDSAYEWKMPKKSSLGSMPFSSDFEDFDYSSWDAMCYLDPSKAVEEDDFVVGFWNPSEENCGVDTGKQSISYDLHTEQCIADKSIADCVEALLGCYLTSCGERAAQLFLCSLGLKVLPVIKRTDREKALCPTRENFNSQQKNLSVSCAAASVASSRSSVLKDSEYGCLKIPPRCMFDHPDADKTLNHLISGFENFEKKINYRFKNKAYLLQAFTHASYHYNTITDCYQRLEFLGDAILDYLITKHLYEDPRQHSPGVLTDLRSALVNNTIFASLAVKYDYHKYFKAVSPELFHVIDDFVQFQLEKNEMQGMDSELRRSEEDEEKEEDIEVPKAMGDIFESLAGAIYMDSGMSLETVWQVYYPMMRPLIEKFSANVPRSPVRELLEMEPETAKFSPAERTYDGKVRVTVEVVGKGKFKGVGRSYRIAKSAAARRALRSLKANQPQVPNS
Description: filter binding.

The target of data set [5] is T6, human Dicer C-terminal fragment (hDcr-C: 1235-1922), bacterially expressed (human, UniProt Q9UPY3 1235-1922).
T6 sequence (looked up): T5 sequence
Description: SEC.

FL-hDicer (full-length human Dicer), sequence (Q9UPY3 whole entry): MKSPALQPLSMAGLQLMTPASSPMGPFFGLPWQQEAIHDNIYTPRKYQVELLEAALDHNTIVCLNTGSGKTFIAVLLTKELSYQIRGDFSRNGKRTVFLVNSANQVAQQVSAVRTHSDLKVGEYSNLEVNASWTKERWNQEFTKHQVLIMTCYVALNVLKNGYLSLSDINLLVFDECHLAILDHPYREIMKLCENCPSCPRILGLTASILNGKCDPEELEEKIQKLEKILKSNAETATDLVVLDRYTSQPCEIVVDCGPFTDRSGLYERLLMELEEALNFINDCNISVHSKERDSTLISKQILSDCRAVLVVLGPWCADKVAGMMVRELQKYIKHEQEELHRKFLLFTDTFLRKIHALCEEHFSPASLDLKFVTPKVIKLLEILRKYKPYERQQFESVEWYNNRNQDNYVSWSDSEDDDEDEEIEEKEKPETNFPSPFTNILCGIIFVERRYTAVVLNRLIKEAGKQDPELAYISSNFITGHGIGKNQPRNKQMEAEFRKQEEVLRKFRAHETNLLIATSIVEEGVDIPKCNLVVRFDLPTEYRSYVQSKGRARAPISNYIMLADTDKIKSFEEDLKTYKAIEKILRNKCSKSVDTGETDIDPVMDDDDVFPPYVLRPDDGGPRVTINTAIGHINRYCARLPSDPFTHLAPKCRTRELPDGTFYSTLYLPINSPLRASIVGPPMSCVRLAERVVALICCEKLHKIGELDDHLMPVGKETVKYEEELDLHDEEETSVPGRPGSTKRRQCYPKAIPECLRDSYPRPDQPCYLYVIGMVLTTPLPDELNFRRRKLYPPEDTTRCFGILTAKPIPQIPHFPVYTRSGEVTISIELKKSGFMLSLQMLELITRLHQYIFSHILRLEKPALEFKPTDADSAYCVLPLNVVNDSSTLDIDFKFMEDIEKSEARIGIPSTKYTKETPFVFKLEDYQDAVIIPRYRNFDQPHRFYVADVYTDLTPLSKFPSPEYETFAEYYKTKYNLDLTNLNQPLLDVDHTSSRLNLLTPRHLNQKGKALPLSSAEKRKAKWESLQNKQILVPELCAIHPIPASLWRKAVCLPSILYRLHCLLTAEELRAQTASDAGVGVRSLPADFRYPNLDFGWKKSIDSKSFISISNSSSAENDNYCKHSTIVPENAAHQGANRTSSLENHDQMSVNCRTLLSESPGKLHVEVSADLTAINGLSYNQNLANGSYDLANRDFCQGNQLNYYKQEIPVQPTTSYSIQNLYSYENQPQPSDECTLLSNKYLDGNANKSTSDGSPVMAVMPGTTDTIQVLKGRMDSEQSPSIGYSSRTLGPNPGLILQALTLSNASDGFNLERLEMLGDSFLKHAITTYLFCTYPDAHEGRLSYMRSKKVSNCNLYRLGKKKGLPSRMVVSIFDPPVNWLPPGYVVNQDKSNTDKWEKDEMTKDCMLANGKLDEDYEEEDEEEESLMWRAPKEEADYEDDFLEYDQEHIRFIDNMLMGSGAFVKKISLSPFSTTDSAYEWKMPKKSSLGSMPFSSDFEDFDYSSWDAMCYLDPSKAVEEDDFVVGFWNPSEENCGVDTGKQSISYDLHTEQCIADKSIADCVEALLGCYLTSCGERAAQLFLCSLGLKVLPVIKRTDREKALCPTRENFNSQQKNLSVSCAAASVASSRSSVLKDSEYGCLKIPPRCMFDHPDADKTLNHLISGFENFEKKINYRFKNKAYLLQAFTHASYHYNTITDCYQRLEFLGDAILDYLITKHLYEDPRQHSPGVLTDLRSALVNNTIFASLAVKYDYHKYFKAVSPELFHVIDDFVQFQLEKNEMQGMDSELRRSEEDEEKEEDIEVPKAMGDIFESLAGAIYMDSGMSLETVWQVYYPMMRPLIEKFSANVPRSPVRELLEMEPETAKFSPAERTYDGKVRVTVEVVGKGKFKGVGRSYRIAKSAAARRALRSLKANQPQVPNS

B1: pre-hlet-7a-1 (structured_RNA)
RNA: UGAGGUAGUAGGUUGUAUAGUUUUAGGGUCACACCCACCACUGGGAGAUAACUAUACAAUCUACUGUCUUACC
In the case of B1, the Kd with DP (DUF283-PAZ) is roughly 1000 nM; in data set [1], 39 ± 5 nM; in the data set with MBP-ATPase/hel, 96 ± 10 nM.

B2: human TAR-RNA binding protein (hTRBP), the larger isoform TRBP2 (natural protein, UniProt Q15633-1 1-366, looked up)
chain: MSEEEQGSGTTTGCGLPSIEQMLAANPGKTPISLLQEYGTRIGKTPVYDLLKAEGQAHQPNFTFRVTVGDTSCTGQGPSKKAAKHKAAEVALKHLKGGSMLEPALEDSSSFSPLDSSLPEDIPVFTAAAAATPVPSVVLTRSPPMELQPPVSPQQSECNPVGALQELVVQKGWRLPEYTVTQESGPAHRKEFTMTCRVERFIEIGSGTSKKLAKRNAAAKMLLRVHTVPLDARDGNEVEPDDDHFSIGVGSRLDGLRNRGPGCTWDSLRNSVGEKILSLRSCSLGSLGALGPACCRVLSELSEEQAFHVSYLDIEELSLSGLCQCLVELSTQPATVCHGSATTREAARGEAARRALQYLKIMAGSK
Turning to B2, the binding result in data set [2] and in data set [3] was “binds” throughout.

B3: 21ab (siRNA/product mimic) (dsRNA)
RNA 1: UAUACAAUGUGCUAGCUUUCU
RNA 2: AAAGCUAGCACAUUGUAUAGU
On to B3, for which the Kd worked out at 220 ± 40 nM with DP (DUF283-PAZ) and 144 ± 23 nM in data set [1].

B4: 37ab (dsRNA)
RNA 1: UGAGGUAGUAGGUUGUAUAGUUUGAAAGUUCACGAUU
RNA 2: UCGUGAACUUUCAAACUAUACAACCUACUACCUCAUU
Take B4: the Kd in the data set with DP (DUF283-PAZ) is 200 ± 34 nM; in data set [4], 300 ± 40 nM; in data set [1], 53 ± 8 nM; in the data set with MBP-ATPase/hel it was 476 ± 30 nM.

B5: human Dicer DUF283-PAZ fragment (DP: 605-1068) (domain or fragment, UniProt Q9UPY3 605-1068, looked up)
chain: T1 sequence
For B5, in data set [5], the binding result is “binds”.

In general, Kd refers to the concentration at which binding is half-saturated. A higher Kd goes with lower affinity.
